Measurements as given in patent publication US20130005646A1 (Novo Nordisk, published 2013).
Starred links: 1 amine or outer side, 2 acyl side, 3 side chain; linkers in the order of their positions; H or OH if unused. Positions of bridges follow the written chain, without caps; N, C: chain ends. Primed or numbered codes have the meaning given here. *: point of attachment. C18 diacid′ = 17-carboxyheptadecanoyl on γGlu amine: (S)-4-carboxy-4-(17-carboxyheptadecanoylamino)butyryl; C20 diacid = O=C(O)CCCCCCCCCCCCCCCCCCC(=O)*; C18 diacid = O=C(O)CCCCCCCCCCCCCCCCC(=O)*; γGlu = O=C(O)[C@H](CCC(=O)[*:2])N[*:1]

Legend:
Test in all cases: cell-based or functional assay
[1] = molecular target: T1, rat amylin 3(a) receptor (rat calcitonin(a) receptor + rat RAMP3) (rat, UniProt P32214 25-516; Q9JJ73 23-147)
T1 sequence (looked up) 1: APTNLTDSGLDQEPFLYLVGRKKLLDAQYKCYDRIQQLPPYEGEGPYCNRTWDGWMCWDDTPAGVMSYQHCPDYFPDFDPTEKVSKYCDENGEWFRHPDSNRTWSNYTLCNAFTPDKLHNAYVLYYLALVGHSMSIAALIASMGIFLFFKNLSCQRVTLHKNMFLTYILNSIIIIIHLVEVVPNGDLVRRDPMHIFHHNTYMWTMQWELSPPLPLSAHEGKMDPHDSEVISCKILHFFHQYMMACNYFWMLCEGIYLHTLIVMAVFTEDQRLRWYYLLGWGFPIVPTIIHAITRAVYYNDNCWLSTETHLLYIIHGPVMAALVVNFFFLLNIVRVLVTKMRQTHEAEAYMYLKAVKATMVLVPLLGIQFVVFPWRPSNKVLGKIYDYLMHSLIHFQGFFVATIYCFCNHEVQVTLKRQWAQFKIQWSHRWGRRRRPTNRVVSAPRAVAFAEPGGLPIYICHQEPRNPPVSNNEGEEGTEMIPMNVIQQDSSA
T1 sequence (looked up) 2: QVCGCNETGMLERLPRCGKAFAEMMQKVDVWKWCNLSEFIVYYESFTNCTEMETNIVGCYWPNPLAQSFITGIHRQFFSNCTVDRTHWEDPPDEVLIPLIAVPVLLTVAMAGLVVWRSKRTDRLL

[2] = molecular target: T2, human amylin 3(a) receptor (human calcitonin receptor + RAMP-3) (human, UniProt P30988 25-474; O60896 24-148)
T2 sequence (looked up) 1: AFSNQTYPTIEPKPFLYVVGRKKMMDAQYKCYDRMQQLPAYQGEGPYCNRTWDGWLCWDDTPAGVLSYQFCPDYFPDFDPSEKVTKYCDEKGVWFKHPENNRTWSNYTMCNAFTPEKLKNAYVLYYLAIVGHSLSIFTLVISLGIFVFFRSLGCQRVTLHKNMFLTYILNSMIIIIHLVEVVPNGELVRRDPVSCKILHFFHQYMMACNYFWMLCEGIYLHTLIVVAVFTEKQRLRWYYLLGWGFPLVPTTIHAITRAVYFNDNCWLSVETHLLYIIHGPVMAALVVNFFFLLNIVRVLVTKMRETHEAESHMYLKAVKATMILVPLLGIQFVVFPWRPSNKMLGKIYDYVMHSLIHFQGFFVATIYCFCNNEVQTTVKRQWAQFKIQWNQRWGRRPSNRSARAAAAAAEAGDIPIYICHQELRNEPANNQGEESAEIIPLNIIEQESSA
T2 sequence (looked up) 2: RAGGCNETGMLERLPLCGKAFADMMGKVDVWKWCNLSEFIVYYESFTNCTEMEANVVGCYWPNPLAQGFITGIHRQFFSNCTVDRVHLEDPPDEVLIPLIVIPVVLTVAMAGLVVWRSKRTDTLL

[3] = molecular target: T3, rat calcitonin (a) receptor (rat, UniProt P32214 25-516)
T3 sequence (looked up): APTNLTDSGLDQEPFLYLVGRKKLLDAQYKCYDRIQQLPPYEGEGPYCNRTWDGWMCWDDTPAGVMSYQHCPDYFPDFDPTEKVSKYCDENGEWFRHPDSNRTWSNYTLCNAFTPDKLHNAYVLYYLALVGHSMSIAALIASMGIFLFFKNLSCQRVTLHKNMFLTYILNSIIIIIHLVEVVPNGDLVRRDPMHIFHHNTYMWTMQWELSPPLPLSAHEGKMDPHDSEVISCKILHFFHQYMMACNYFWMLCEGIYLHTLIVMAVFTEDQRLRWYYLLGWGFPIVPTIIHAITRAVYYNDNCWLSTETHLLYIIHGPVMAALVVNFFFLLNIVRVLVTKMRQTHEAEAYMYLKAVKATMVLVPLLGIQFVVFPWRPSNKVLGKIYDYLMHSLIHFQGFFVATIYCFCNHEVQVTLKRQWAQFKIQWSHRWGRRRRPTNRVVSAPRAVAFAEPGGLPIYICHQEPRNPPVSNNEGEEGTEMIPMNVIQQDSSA

[4] = molecular target: T4, human calcitonin (a) receptor (human, UniProt P30988 25-474)
T4 sequence (looked up): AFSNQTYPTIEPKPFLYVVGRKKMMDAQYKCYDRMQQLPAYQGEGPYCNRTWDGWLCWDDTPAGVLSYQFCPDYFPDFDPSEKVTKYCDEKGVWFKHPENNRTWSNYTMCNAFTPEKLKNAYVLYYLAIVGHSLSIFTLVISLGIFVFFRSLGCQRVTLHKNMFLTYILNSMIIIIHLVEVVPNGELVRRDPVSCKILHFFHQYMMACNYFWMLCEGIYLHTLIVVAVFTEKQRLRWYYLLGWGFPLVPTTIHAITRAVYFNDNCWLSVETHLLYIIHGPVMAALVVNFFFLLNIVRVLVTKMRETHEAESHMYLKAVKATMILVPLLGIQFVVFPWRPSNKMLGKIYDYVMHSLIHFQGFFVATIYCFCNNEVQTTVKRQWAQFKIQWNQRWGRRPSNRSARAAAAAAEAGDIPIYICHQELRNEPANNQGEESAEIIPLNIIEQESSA

Binder | Amylin receptor rat EC50 [1] | Amylin receptor human EC50 [2] | CTa receptor rat EC50 [3] | CTa receptor human EC50 [4]
{C20 diacid-γGlu}-EKCNTATCATQRLAEFLRHSSNNFGPILPPTNVGSHTY-NH2 (disulfide 3-8; SMILES CC[C@H](C)[C@H](NC(=O)[C@@H]1CCCN1C(=O)CNC(=O)[C@H](Cc1ccccc1)NC(=O)[C@H](CC(N)=O)NC(=O)[C@H](CC(N)=O)NC(=O)[C@H](CO)NC(=O)[C@H](CO)NC(=O)[C@H](Cc1c[nH]cn1)NC(=O)[C@H](CCCNC(=N)N)NC(=O)[C@H](CC(C)C)NC(=O)[C@H](Cc1ccccc1)NC(=O)[C@H](CCC(=O)O)NC(=O)[C@H](C)NC(=O)[C@H](CC(C)C)NC(=O)[C@H](CCCNC(=N)N)NC(=O)[C@H](CCC(N)=O)NC(=O)[C@@H](NC(=O)[C@H](C)NC(=O)[C@@H]1CSSC[C@H](NC(=O)[C@H](CCCCN)NC(=O)[C@H](CCC(=O)O)NC(=O)CC[C@H](NC(=O)CCCCCCCCCCCCCCCCCCC(=O)O)C(=O)O)C(=O)N[C@@H](CC(N)=O)C(=O)N[C@@H]([C@@H](C)O)C(=O)N[C@@H](C)C(=O)N[C@@H]([C@@H](C)O)C(=O)N1)[C@@H](C)O)C(=O)N[C@@H](CC(C)C)C(=O)N1CCC[C@H]1C(=O)N1CCC[C@H]1C(=O)N[C@H](C(=O)N[C@@H](CC(N)=O)C(=O)N[C@H](C(=O)NCC(=O)N[C@@H](CO)C(=O)N[C@@H](Cc1c[nH]cn1)C(=O)N[C@H](C(=O)N[C@@H](Cc1ccc(O)cc1)C(N)=O)[C@@H](C)O)C(C)C)[C@@H](C)O) [N-alpha-[(S)-4-Carboxy-4-(19-carboxynonadecanoylamino)butyryl]-Glu-[Glu14,Arg17,His35]-pramlintide] | 63 pM | 116 pM | 2230 pM | 606 pM
{C18 diacid-γGlu}-KCNTATCATQRLAEFLHHSSNNFGPILPPTNVGSHTY-NH2 (disulfide 2-7; not fully specified; printed as N-alpha-[(S)-4-Carboxy-4-(17-carboxyheptadecanoylamino)butyryl]-[Glu14,His17,His35]-pramlintide) [N-alpha-[(S)-4-Carboxy-4-(17-carboxyheptadecanoylamino)butyryl]-[Glu14,His17,His35]-pramlintide] | 23 pM | 56 pM | 148 pM | 60.5 pM
{C18 diacid-γGlu}-KCNTATCATQRLAEFLRHSSNNFGPILPPTNVGSHTY-NH2 (disulfide 2-7; SMILES CC[C@H](C)[C@H](NC(=O)[C@@H]1CCCN1C(=O)CNC(=O)[C@H](Cc1ccccc1)NC(=O)[C@H](CC(N)=O)NC(=O)[C@H](CC(N)=O)NC(=O)[C@H](CO)NC(=O)[C@H](CO)NC(=O)[C@H](Cc1c[nH]cn1)NC(=O)[C@H](CCCNC(=N)N)NC(=O)[C@H](CC(C)C)NC(=O)[C@H](Cc1ccccc1)NC(=O)[C@H](CCC(=O)O)NC(=O)[C@H](C)NC(=O)[C@H](CC(C)C)NC(=O)[C@H](CCCNC(=N)N)NC(=O)[C@H](CCC(N)=O)NC(=O)[C@@H](NC(=O)[C@H](C)NC(=O)[C@@H]1CSSC[C@H](NC(=O)[C@H](CCCCN)NC(=O)CC[C@H](NC(=O)CCCCCCCCCCCCCCCCC(=O)O)C(=O)O)C(=O)N[C@@H](CC(N)=O)C(=O)N[C@@H]([C@@H](C)O)C(=O)N[C@@H](C)C(=O)N[C@@H]([C@@H](C)O)C(=O)N1)[C@@H](C)O)C(=O)N[C@@H](CC(C)C)C(=O)N1CCC[C@H]1C(=O)N1CCC[C@H]1C(=O)N[C@H](C(=O)N[C@@H](CC(N)=O)C(=O)N[C@H](C(=O)NCC(=O)N[C@@H](CO)C(=O)N[C@@H](Cc1c[nH]cn1)C(=O)N[C@H](C(=O)N[C@@H](Cc1ccc(O)cc1)C(N)=O)[C@@H](C)O)C(C)C)[C@@H](C)O) [N-alpha-[(S)-4-Carboxy-4-(17-carboxyheptadecanoylamino)butyryl]-[Glu14,Arg17,His35]-pramlintide] | 38 pM | 67.5 pM | 2360 pM | 334 pM
{C18 diacid′-γGlu}-EKCNTATCATQRLAEFLRHSSNNFGPILPPTNVGSHTY-NH2 (disulfide 3-8) [N-alpha-[(S)-4-Carboxy-4-(17-carboxyheptadecanoylamino)butyryl]-Glu-[Glu14,Arg17,His35]-pramlintide] | 281 pM | 172 pM | 17600 pM | 1070 pM
{C20 diacid-γGlu}-KCNTATCATQRLAEFLRHSSNNFGAPLSSTNVGSHTY-NH2 (disulfide 2-7; SMILES CC(C)C[C@H](NC(=O)[C@H](CCCNC(=N)N)NC(=O)[C@H](CCC(N)=O)NC(=O)[C@@H](NC(=O)[C@H](C)NC(=O)[C@@H]1CSSC[C@H](NC(=O)[C@H](CCCCN)NC(=O)CC[C@H](NC(=O)CCCCCCCCCCCCCCCCCCC(=O)O)C(=O)O)C(=O)N[C@@H](CC(N)=O)C(=O)N[C@@H]([C@@H](C)O)C(=O)N[C@@H](C)C(=O)N[C@@H]([C@@H](C)O)C(=O)N1)[C@@H](C)O)C(=O)N[C@@H](C)C(=O)N[C@@H](CCC(=O)O)C(=O)N[C@@H](Cc1ccccc1)C(=O)N[C@@H](CC(C)C)C(=O)N[C@@H](CCCNC(=N)N)C(=O)N[C@@H](Cc1c[nH]cn1)C(=O)N[C@@H](CO)C(=O)N[C@@H](CO)C(=O)N[C@@H](CC(N)=O)C(=O)N[C@@H](CC(N)=O)C(=O)N[C@@H](Cc1ccccc1)C(=O)NCC(=O)N[C@@H](C)C(=O)N1CCC[C@H]1C(=O)N[C@@H](CC(C)C)C(=O)N[C@@H](CO)C(=O)N[C@@H](CO)C(=O)N[C@H](C(=O)N[C@@H](CC(N)=O)C(=O)N[C@H](C(=O)NCC(=O)N[C@@H](CO)C(=O)N[C@@H](Cc1c[nH]cn1)C(=O)N[C@H](C(=O)N[C@@H](Cc1ccc(O)cc1)C(N)=O)[C@@H](C)O)C(C)C)[C@@H](C)O) | 1330 pM | 217 pM | 5350 pM | 342 pM
{C20 diacid-γGlu}-HKCNTATCATQRLAEFLHHSSNNFGPILPPTNVGSHTY-NH2 (disulfide 3-8; SMILES CC[C@H](C)[C@H](NC(=O)[C@@H]1CCCN1C(=O)CNC(=O)[C@H](Cc1ccccc1)NC(=O)[C@H](CC(N)=O)NC(=O)[C@H](CC(N)=O)NC(=O)[C@H](CO)NC(=O)[C@H](CO)NC(=O)[C@H](Cc1c[nH]cn1)NC(=O)[C@H](Cc1c[nH]cn1)NC(=O)[C@H](CC(C)C)NC(=O)[C@H](Cc1ccccc1)NC(=O)[C@H](CCC(=O)O)NC(=O)[C@H](C)NC(=O)[C@H](CC(C)C)NC(=O)[C@H](CCCNC(=N)N)NC(=O)[C@H](CCC(N)=O)NC(=O)[C@@H](NC(=O)[C@H](C)NC(=O)[C@@H]1CSSC[C@H](NC(=O)[C@H](CCCCN)NC(=O)[C@H](Cc2c[nH]cn2)NC(=O)CC[C@H](NC(=O)CCCCCCCCCCCCCCCCCCC(=O)O)C(=O)O)C(=O)N[C@@H](CC(N)=O)C(=O)N[C@@H]([C@@H](C)O)C(=O)N[C@@H](C)C(=O)N[C@@H]([C@@H](C)O)C(=O)N1)[C@@H](C)O)C(=O)N[C@@H](CC(C)C)C(=O)N1CCC[C@H]1C(=O)N1CCC[C@H]1C(=O)N[C@H](C(=O)N[C@@H](CC(N)=O)C(=O)N[C@H](C(=O)NCC(=O)N[C@@H](CO)C(=O)N[C@@H](Cc1c[nH]cn1)C(=O)N[C@H](C(=O)N[C@@H](Cc1ccc(O)cc1)C(N)=O)[C@@H](C)O)C(C)C)[C@@H](C)O) [N-alpha-[(S)-4-Carboxy-4-(19-carboxynonadecanoylamino)butyryl]-His-[Glu14,His17,His35]-pramlintide] | 305 pM | 182 pM | 656 pM | 210 pM
